From patent publication US20260151494A1 (ARO BIOTHERAPEUTICS, published 2026)

B1: CD71-binding FN3 domain of SEQ ID NO: 513 (designed binder)
chain: MLPAPKNLVVSRVTEDSARLSWTAPDAAFDSFFIGYLEPQPPGEAISLYVPGSERSYDLTGLKPGTEYNVTIQGVKGGFPSLPLAAQFTT
B2: CD71-binding FN3 domain of SEQ ID NO: 526 (designed binder)
chain: MLPAPKNLVVSRVTEDSARLSWTAPDAAFDSFFIGYLEPQPPGEAISLIVPGSERSYDLTGLKPGTEYNVTIQGVKGGFPSDPLIAIFTT
B3: CD71-binding FN3 domain of SEQ ID NO: 514 (designed binder)
chain: MLPAPKNLVVSRVTEDSARLSWTAPDAAFDSFFIGYLEPQPPGEAIHLFVPGSERSYDLTGLKPGTEYNVTIQGVKGGFPSEPLIANFTT
B4: CD71-binding FN3 domain of SEQ ID NO: 521 (designed binder)
chain: MLPAPKNLVVSRVTEDSARLSWTAPDAAFDSFFIGYLEPQPPGEAIVLWVPGSERSYDLTGLKPGTEYNVTIQGVKGGFPSHPLVAHFTT
B5: CD71-binding FN3 domain of SEQ ID NO: 517 (designed binder)
chain: MLPAPKNLVVSRVTEDSARLSWTAPDAAFDSFFIGYLEPQPPGEAIALVVPGSERSYDLTGLKPGTEYNVTIQGVKGGFPSMPLFAYFTT
B6: CD71-binding FN3 domain of SEQ ID NO: 523 (designed binder)
chain: MLPAPKNLVVSRVTEDSARLSWTAPDAAFDSFFIGYLEPQPPGEAIDLLVPGSERSYDLTGLKPGTEYNVTIQGVKGGFPSEPLTAEFTT
B7: CD71-binding FN3 domain of SEQ ID NO: 516 (designed binder)
chain: MLPAPKNLVVSRVTEDSARLSWTAPDAAFDSFFIGYLEPQPPGEAISLWVPGSERSYDLTGLKPGTEYNVTIQGVKGGFPSSPLVAYFTT
B8: CD71-binding FN3 domain of SEQ ID NO: 515 (designed binder)
chain: MLPAPKNLVVSRVTEDSARLSWTAPDAAFDSFFIGYLEPQPPGEAIALWVPGSERSYDLTGLKPGTEYNVTIQGVKGGFPSTPLIAQFTT
B9: CD71-binding FN3 domain of SEQ ID NO: 522 (designed binder)
chain: MLPAPKNLVVSRVTEDSARLSWTAPDAAFDSFFIGYLEPQPPGEAITLYVPGSERSYDLNGLKPGTEYNVTIQGVKGGFPSMPLSAIFTT
B10: CD71-binding FN3 domain of SEQ ID NO: 525 (designed binder)
chain: MLPAPKNLVVSRVTEDSARLSWTAPDAAFDSFFIGYLEPQPPGEAIALYVPGSERSYDLTGLKPGTEYNVTIQGVKGGFPSEPLVATFTT
B11: CD71-binding FN3 domain of SEQ ID NO: 524 (designed binder)
chain: MLPAPKNLVVSRVTEDSARLSWTAPDAAFDSFFIGYLEPQPPGEAIHLWVPGSERSYDLTGLKPGTEYNVTIQGVKGGFPSMPLSAIFTT
B12: CD71-binding FN3 domain of SEQ ID NO: 518 (designed binder)
chain: MLPAPKNLVVSRVTEDSARLSWTAPDAAFDSFFIGYLEPQPPGEAISLWVPGSERSYDLTGLKPGTEYNVTIQGVKGGFPSDPLGAHFTT

Key:
[1] = biological target: T1, apical domain of human CD71 (human, UniProt P02786 189-383, limits assumed); assay: primary ELISA, RLU over HSA
T1 construct: domain: apical domain; Screen 4 panned on human apical domains, the ELISA text says only 'apical domain'
T1 sequence (P02786 189-383 limits assumed): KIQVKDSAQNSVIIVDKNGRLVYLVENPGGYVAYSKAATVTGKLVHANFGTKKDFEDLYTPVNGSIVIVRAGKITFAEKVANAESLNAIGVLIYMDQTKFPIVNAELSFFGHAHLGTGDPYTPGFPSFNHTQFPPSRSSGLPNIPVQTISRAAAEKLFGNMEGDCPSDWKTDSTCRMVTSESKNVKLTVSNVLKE

[2] = biological target: T2, human CD71 extracellular domain (human, UniProt P02786 89-760, biotinylated); assay: primary ELISA, RLU over HSA
T2 construct: also called hCD71; CD71-ECD
T2 sequence (P02786 89-760): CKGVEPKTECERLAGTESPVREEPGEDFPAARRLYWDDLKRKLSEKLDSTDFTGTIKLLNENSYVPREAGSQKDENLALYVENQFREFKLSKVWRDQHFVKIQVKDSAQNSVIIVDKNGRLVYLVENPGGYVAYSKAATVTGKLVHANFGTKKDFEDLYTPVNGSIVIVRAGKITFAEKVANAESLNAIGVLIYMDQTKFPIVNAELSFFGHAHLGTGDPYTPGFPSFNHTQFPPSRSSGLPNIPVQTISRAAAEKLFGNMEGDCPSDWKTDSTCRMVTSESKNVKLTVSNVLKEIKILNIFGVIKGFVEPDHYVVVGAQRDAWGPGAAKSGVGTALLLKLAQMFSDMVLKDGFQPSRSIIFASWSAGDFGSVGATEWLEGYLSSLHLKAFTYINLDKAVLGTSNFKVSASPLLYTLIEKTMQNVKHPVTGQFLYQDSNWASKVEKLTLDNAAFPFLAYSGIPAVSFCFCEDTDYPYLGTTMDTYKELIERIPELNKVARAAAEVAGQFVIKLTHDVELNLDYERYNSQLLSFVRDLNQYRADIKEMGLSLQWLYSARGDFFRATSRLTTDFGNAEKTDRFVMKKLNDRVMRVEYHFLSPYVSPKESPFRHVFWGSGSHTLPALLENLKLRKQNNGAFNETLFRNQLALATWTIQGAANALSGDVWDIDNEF

[3] = biological target: T1, apical domain of human CD71; assay: primary ELISA; note: test concentration or dose not given here
[4] = biological target: T2, human CD71 extracellular domain; assay: primary ELISA; note: test concentration or dose not given here

Row | Apical domain:HSA [1] | hCD71:HSA [2] | RLU [3] | RLU [4] | Binder
1 | 201 | 186 | 2.72e+06 RLU | 2.52e+06 RLU | B1
2 | 721 | 497 | 5.37e+06 RLU | 3.7e+06 RLU | B2
3 | 119 | 119 | 5.94e+06 RLU | 5.92e+06 RLU | B3
4 | 178 | 186 | 5.38e+06 RLU | 5.62e+06 RLU | B4
5 | 166 | 142 | 3.64e+06 RLU | 3.12e+06 RLU | B5
6 | 300 | 292 | 4.31e+06 RLU | 4.19e+06 RLU | B6
7 | 264 | 267 | 4.67e+06 RLU | 4.73e+06 RLU | B7
8 | 88 | 97 | 4.67e+06 RLU | 5.14e+06 RLU | B8
9 | 283 | 318 | 3.48e+06 RLU | 3.91e+06 RLU | B9
10 | 48 | 49 | 5.93e+06 RLU | 6.02e+06 RLU | B10
11 | 232 | 190 | 3.95e+06 RLU | 3.22e+06 RLU | B11
12 | 271 | 150 | 3.34e+06 RLU | 1.85e+06 RLU | B12
